Measurements reported in patent publication US20050250700A1.
Bridge positions count the residues as written; N and C are the ends. Side chains are listed from the residue outwards. * marks the point of attachment. Biotin = O=C1N[C@H]2[C@H](CS[C@H]2CCCCC(=O)*)N1; AEEA = NCCOCCOCC(=O)O

Legend:
[1] = target: KDR (VEGFR-2), full-length receptor on cells (human), P35968; assay: competitor 125I-VEGF (300 pM) on KDR-transfected 293H cells; peptide 30 µM; conditions: remark: other sources report otherwise
Chain of KDR (VEGFR-2), full-length receptor on cells (human), P35968 (P35968 20-1356): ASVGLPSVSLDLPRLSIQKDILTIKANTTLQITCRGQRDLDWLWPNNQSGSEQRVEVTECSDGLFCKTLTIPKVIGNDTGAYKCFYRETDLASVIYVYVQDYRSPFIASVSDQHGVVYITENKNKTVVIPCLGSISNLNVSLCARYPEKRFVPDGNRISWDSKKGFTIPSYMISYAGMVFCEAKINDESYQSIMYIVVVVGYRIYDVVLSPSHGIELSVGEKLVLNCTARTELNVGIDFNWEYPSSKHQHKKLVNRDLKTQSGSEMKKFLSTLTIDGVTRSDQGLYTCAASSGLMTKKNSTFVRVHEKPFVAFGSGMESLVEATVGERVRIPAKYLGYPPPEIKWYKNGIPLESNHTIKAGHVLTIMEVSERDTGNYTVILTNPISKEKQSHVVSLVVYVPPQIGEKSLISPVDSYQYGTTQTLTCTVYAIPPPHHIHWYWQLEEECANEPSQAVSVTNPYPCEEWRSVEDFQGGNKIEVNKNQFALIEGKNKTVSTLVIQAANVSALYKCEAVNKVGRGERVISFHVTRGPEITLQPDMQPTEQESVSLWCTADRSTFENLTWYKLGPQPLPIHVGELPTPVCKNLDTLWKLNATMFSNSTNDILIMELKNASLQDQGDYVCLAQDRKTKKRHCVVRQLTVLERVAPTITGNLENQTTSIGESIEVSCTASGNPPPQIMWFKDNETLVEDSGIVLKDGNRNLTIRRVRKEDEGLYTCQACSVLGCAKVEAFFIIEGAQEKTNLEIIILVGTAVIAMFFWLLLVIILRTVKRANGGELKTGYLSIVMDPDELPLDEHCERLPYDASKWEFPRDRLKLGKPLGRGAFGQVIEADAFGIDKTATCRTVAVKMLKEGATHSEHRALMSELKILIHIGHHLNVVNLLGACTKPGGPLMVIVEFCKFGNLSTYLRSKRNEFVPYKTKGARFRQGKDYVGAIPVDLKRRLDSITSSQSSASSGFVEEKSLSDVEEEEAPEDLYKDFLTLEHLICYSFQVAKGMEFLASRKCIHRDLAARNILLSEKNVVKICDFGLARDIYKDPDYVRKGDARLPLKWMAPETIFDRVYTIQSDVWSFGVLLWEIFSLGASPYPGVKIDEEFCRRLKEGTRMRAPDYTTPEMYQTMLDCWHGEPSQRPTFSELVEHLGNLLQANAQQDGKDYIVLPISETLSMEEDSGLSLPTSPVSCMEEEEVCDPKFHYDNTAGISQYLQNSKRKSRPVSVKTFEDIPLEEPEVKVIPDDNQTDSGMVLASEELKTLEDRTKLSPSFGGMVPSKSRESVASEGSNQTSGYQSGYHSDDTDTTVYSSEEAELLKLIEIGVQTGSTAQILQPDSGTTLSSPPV

[2] = target: KDR (VEGFR-2), full-length receptor on cells (human), P35968; assay: competitor 125I-VEGF (300 pM) on KDR-transfected 293H cells; peptide 0.3 µM; conditions: remark: other sources report otherwise

A % inhibition of 125I-labeled VEGF binding [1] of 48% and a % inhibition of 125I-labeled VEGF binding [2] of 24.4% were found for Ac-AGPKWCEEDWYYCMITGTGGGK([AEEA-AEEA-Biotin])-NH2 (disulfide 6-13 (inferred)) [biotinylated SEQ ID NO:264 with a JJ spacer] in this work.
